Measured values reported in patent EP4810057A1.

Assays:
Assay in all cases: BLI, mAb on Protein A or AMC2 sensor, 1:1 fit
[1] = target: SCB-1019T(A) (respiratory syncytial virus subtype A (A2 strain))
[2] = target: SCB-1019T(B) (respiratory syncytial virus subtype B (Australian RSV B strain))
[3] = target: WT-F-Trimer (respiratory syncytial virus, subtype not given)
[4] = target: commercial GSK vaccine F protein control

Substance	Kd [1] [pM]	RLU(nm) [1] [nm]	koff [1] [s⁻¹]	Kd [2] [pM]	RLU(nm) [2] [nm]	koff [2] [s⁻¹]	kon [2] [M⁻¹ s⁻¹]	Kd [3] [pM]	RLU(nm) [3] [nm]	koff [3] [s⁻¹]	kon [3] [M⁻¹ s⁻¹]	Kd [4] [pM]	RLU(nm) [4] [nm]	koff [4] [s⁻¹]	kon [4] [M⁻¹ s⁻¹]	kon [1] [M⁻¹ s⁻¹]
hRSV90 (antibody)	< 1	0.928	< 1e-07	1940	0.068	0.00153	788000	12700	0.0884	0.000271	21400	771	1.03	0.000218	282000	
AM22 (antibody)	209	1.13	2.1e-05	495	1.1	3.99e-05	80700	< 1	0.123	< 1e-07		644	1.42	0.000196	304000	
AM14 (antibody)	382	0.693	5.67e-05	200	0.534	4.43e-05	222000		0			484	1.34	0.000364		
MPE8 (antibody)	< 1	0.59	< 1e-07	771	0.672	3.43e-05		22100	0.0968	0.000226		2220	0.815	0.000353		4.12e+06
D25 (antibody)	114	1.19	3.38e-05	247	1.5	0.000112		< 1	0.266	< 1e-07	12100	221	1.11	0.000104	472000	296000
